Measurements published in PMC7406587, “Improving the production of AHL lactonase AiiO-AIO6 from Ochrobactrum sp. M231 in intracellular protease-deficient Bacillus subtilis” (AMB Express, 2020).

Substrate: CCCCCC(=O)CC(=O)N[C@H]1CCOC1=O
Test: purified protein
Format: biochemical, Ochrobactrum sp. M231
Details: PBS pH 7.0, 30 °C, 30 min, substrate range printed as 0.249 to 0.870 nM in methods, not consistent with Km in mmol/L, hydrolysis assay used 0.248 mM

B1: AiiO-AIO6 (Ochrobactrum sp. M231) (protein)
chain: MKSHEIETSHGRIAIRESRGNGTPLLMIHGNSSAGAIFAPQLEGEIGRNWRVIAPDLPGHGQSGNALDPDRSYSMEGYADVMTEVLAKLGISDAVVFGWSLGGHIGIEMISRFPGMRGLMITGTPPVAREEVGQGFRSGPDMALAGQEAFSDRDVESYARSTCGEPFEEQLLEIVARTDGRARRIMFEKFAAGTGGNQRDIVAEARLPIAVVNGRDEPFVELDFVSKVRFGNLWEGRTHVIDGAGHAPFRETPAIFDDYLQRFMRDCTA
notes: purified recombinant; expressed from pWB-AIO6BS in Bacillus subtilis 1A751 or protease-deletion derivatives (non-classical secretion, no signal peptide); His tag implied by anti-His Western blot; catalytic triad Ser100, Glu214, His246
**Q.** For B1, which Km is on record?
**A.** Its Km is 415.1 µM.

**Q.** And the kcat?
**A.** The kcat was 9.34 S^-1.
